Blank lines part the entries; values can stand above or below the binder they belong to.
Columns and labels:
Test in all cases: fluorescence polarisation; competition: unlabelled peptide in serial dilution displaces a FITC-labelled probe peptide from the bait domain (master mix with protein at four times the KD of the probe, 10 nM probe, 2 mM DTT); 50 mM KPO4 or NaPO4 pH 7.5; triplicates; probe for KEAP1 Kelch: FITC-NFE2L1 228-243, other probes in Dataset EV6
Settings in all cases: both partners purified
[1] = target: T1, 14‐3‐3 SFN, tag cleaved, for affinity measurements (human)
T1 chain: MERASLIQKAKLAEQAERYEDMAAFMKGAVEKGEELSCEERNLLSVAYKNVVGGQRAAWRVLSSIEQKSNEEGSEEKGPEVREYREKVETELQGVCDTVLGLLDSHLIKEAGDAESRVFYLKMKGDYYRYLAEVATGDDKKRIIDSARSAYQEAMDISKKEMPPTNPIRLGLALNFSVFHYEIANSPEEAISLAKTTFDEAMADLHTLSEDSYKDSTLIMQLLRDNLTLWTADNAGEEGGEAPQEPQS

[2] = target: KEAP1 Kelch, MBP‐tagged domain, for affinity measurements (human)
Chain of KEAP1 Kelch, MBP‐tagged domain, for affinity measurements (human) (chain, as listed by the source): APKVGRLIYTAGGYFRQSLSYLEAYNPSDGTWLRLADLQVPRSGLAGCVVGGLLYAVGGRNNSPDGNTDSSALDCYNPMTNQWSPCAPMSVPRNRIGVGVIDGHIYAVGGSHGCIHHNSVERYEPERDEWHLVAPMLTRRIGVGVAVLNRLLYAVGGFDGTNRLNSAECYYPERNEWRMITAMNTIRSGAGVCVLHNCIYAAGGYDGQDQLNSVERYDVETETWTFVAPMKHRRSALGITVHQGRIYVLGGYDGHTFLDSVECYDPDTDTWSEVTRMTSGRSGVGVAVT

[3] = target: T2, TLN1 PTB, tag cleaved, for affinity measurements (human)
T2 chain: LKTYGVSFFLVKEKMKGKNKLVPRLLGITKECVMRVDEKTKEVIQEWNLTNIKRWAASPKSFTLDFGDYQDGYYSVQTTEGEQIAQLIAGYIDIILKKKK

B1: MAP1A_(1836–1851) peptide, synthetic (peptide)
peptide: PSWLADIPPWVPKDRP
notes: microtubule-associated protein 1A, human, residues 1836-1851; source: synthetic peptide, bought: GeneCust
Ki [1]: 355 µM

B3: ITB3_(763–778) peptide from integrin beta‐3, synthetic (peptide)
peptide: AKWDTANNPLYKEATS
notes: integrin beta-3, human, residues 763-778; source: synthetic peptide, bought: GeneCust
Ki [3]: 500 µM

Binder: Ac-YDEKTGEFLPIQPAQH-NH2 [NFE2L2 E79K peptide, synthetic]
fold loss of affinity against the wild-type peptide [2]: 1000 fold

Next, values leading:

fold loss of affinity against the wild-type peptide [2]: 1000 fold
Binder: Ac-YDEEKGEFLPIQPAQH-NH2 [NFE2L2 T80K peptide, synthetic]

Ki [2]: 1 µM
B2: PTTG1_(4–19) peptide from securin, synthetic (peptide, UniProt O95997 4-19, looked up)
peptide: LIYVDKENGEPGTRVV
notes: securin, human, residues 4-19 (NGE containing); source: synthetic peptide, bought: GeneCust
